B1: Nfasc 1198 to 1214 WT [not stated] / AnkG ANK repeats (residues 38-855, R1-24) [not stated] (parent complex)
chain 1: GEGQFNEDGSFIGQYTV
chain 2: KSDANASYLRAARAGHLEKALDYIKNGVDVNICNQNGLNALHLASKEGHVEVVSELLQREANVDAATKKGNTALHIASLAGQAEVVKVLVTNGANVNAQSQNGFTPLYMAAQENHLEVVRFLLDNGASQSLATEDGFTPLAVALQQGHDQVVSLLLENDTKGKVRLPALHIAARKDDTKAAALLLQNDTNADIESKMVVNRATESGFTPLHIAAHYGNINVATLLLNRAAAVDFTARNDITPLHVASKRGNANMVKLLLDRGAKIDAKTRDGLTPLHCGARSGHEQVVEMLLDRAAPILSKTKNGLSPLHMATQGDHLNCVQLLLQHNVPVDDVTNDYLTALHVAAHCGHYKVAKVLLDKKANPNAKALNGFTPLHIACKKNRIRVMELLLKHGASIQAVTESGLTPIHVAAFMGHVNIVSQLMHHGASPNTTNVRGETALHMAARSGQAEVVRYLVQDGAQVEAKAKDDQTPLHISARLGKADIVQQLLQQGASPNAATTSGYTPLHLSAREGHEDVAAFLLDHGASLSITTKKGFTPLHVAAKYGKLEVASLLLQKSASPDAAGKSGLTPLHVAAHYDNQKVALLLLDQGASPHAAAKNGYTPLHIAAKKNQMDIATSLLEYGADANAVTRQGIASVHLAAQEGHVDMVSLLLSRNANVNLSNKSGLTPLHLAAQEDRVNVAEVLVNQGAHVDAQTKMGYTPLHVGCHYGNIKIVNFLLQHSAKVNAKTKNGYTPLHQAAQQGHTHIINVLLQNNASPNELTVNGNTALAIARRLGYISVVDTLKVVTEEIMTTTTITEKHKMNVPETMNEVLDMS
B2: Nfasc ankyrin-binding domain (ABD, residues 1187-1214) [not stated] / AnkG ANK repeats (residues 38-855, R1-24) [not stated] (parent complex)
chain 1: SDDSLVDYGEGGEGQFNEDGSFIGQYTV
chain 2: B1 chain 2

Variants of: B1
Experiment: ITC; parent: 340 nM

| Variant | Kd [nM] |
| --- | --- |
| chain 1 I12Q | 1000 |
| chain 1 F11Q | 1400 |
| chain 1 E7A | 9200 |
| chain 1 Y15E | 3200 |
| chain 1 D8K | 7700 |
| chain 1 N6A | 260 |
| chain 1 T16A | 460 |
| chain 1 D8A | 1300 |
| chain 1 F5Q | 7100 |

Variants of: B2
Experiment: ITC; parent: 220 nM

| Variant | Kd [nM] |
| --- | --- |
| chain 2 L306Q, chain 2 L339Q | 2000 |
| chain 2 V245Q | 1300 |
| chain 2 I240Q, chain 2 L273Q | 3000 |
| chain 2 H347A | 1700 |
| chain 2 T302A, chain 2 N304A | 2500 |
| chain 2 M311Q | 1800 |
| chain 2 R281A, chain 2 Q314A | 670 |
